How the values were obtained:
KCC2 = biological target: T1, KCC2 (Homo sapiens, UniProt Q9H2X9); assay: SPR (Biacore S200), steady-state Langmuir fit on immobilized purified KCC2; assay type: binding
T1 construct: gene SLC12A5; N-terminal tagged Flag-Avi-His-KCC2, residues 1–1116 of NP_065759 (human KCC2 isoform 2), purified full length
T1 sequence (Q9H2X9 1-1116 isoform Q9H2X9-2): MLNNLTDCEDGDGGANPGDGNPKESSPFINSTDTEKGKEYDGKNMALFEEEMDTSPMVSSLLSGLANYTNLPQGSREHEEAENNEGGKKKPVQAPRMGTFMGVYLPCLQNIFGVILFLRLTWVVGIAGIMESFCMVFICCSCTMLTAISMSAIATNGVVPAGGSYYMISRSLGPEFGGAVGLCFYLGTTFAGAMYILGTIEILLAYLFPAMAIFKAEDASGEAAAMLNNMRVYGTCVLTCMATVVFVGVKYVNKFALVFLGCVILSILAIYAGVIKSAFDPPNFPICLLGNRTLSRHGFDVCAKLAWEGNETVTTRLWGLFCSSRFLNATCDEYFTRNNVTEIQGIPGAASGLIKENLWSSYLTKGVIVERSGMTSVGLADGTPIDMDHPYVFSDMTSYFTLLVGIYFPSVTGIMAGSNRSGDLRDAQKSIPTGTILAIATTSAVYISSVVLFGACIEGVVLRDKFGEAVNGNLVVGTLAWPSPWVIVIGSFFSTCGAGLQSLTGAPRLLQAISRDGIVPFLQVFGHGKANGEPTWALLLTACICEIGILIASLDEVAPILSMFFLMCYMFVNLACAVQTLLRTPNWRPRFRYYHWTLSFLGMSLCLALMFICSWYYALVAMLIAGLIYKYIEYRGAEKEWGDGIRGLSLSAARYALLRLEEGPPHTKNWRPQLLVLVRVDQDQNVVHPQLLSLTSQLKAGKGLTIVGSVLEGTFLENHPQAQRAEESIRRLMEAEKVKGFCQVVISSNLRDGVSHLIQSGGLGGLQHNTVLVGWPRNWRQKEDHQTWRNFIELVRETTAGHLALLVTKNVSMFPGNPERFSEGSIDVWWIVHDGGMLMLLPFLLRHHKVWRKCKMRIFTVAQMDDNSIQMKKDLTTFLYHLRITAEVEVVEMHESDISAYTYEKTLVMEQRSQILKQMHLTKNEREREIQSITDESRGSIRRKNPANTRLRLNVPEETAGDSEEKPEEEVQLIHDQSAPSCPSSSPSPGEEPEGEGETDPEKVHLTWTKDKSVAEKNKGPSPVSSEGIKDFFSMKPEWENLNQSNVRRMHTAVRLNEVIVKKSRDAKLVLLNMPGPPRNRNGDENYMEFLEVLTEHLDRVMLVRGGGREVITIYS
Excerpt: SPR (Biacore S200), steady-state Langmuir fit on immobilized purified KCC2 on KCC2 | Concentration-dependent binding of VU0463271 (blue diamonds) and non-specific control compound (red circles) on immobilized purified KCC2.

[1] = biological target: Flag-Avi-His-KCC2 (human potassium chloride co-transporter KCC2, N-terminally tagged) (human) (UniProt Q9H2X9); assay: native gel or EMSA; purified KCC2 in CALX-R3/DDM on 4-15% Clear Native PAGE (cathode buffer 7.5 mM imidazole, 0.05% deoxycholate, 0.01% DDM), 4 °C, Western blot with KCC2 antibody; with or without a freeze-thaw cycle
[2] = biological target: Flag-Avi-His-KCC2 (human potassium chloride co-transporter KCC2, N-terminally tagged) (human) (UniProt Q9H2X9); assay: negative stain electron microscopy; gel filtration fractions of KCC2 monomers and dimers, 40 µg/ml in PBS, CALX-R3 1.5 mM, DDM 0.6 mM; 2% uranyl acetate; 2-D classes and 3-D models
[3] = biological target: Flag-Avi-His-KCC2 (human potassium chloride co-transporter KCC2, N-terminally tagged) (human) (UniProt Q9H2X9); assay: SEC; 50 µl purified KCC2 at 1 mg/ml on Superdex 200 Increase 5/150 GL, PBS, CALX-R3 1.5 mM, DDM 0.6 mM; fractions analysed by Clear Native PAGE and Western blot
[4] = biological target: Flag-Avi-His-KCC2 (human potassium chloride co-transporter KCC2, N-terminally tagged) (human) (UniProt Q9H2X9); assay: cross-linking; purified KCC2 (5 µg) with glutaraldehyde 0-0.1% for 30 min at 4 °C, with or without DTT; SDS-PAGE and Western blot
[5] = biological target: T2, recombinant mouse KCC2 (mouse), Q91V14; assay: native gel or EMSA; purified KCC2 in CALX-R3/DDM on 4-15% Clear Native PAGE (cathode buffer 7.5 mM imidazole, 0.05% deoxycholate, 0.01% DDM), 4 °C, Western blot with KCC2 antibody; with or without a freeze-thaw cycle; conditions: remark: other sources report otherwise
T2 chain: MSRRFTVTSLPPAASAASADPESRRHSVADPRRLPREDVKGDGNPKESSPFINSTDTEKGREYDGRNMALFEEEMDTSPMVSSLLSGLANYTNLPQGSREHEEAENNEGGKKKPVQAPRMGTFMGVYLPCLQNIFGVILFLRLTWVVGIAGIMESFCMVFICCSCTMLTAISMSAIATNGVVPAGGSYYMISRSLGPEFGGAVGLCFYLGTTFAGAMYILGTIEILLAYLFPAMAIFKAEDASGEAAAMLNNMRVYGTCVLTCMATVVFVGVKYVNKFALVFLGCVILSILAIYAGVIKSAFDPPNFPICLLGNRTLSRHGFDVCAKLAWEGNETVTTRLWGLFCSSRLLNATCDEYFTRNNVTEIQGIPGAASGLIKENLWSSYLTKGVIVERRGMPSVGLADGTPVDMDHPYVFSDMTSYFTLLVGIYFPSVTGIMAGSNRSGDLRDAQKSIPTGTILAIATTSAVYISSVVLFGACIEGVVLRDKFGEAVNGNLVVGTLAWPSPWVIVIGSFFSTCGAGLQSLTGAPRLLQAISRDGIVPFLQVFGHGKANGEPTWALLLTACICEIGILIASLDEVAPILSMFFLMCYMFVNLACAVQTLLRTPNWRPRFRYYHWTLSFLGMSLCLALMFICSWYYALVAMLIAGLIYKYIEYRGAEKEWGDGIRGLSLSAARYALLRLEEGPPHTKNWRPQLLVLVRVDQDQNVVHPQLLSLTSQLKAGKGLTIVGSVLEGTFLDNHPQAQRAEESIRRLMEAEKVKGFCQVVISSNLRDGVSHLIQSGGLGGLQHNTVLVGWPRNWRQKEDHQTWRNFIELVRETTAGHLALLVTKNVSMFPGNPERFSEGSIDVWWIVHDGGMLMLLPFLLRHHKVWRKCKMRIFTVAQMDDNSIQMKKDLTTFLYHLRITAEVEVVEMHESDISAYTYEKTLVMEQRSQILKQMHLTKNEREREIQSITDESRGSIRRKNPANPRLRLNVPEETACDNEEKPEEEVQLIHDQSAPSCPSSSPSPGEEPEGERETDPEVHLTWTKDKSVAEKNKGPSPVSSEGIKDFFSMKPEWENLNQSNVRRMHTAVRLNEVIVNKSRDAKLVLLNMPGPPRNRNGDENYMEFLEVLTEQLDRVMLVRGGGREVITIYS

`Cc1csc(N(C(=O)CSc2ccc(-c3ccccc3)nn2)C2CC2)n1` [VU0463271] gave a Kd (KCC2) of 3 ± 2 µM.

“Flag-Avi-His-KCC2 (human potassium chloride co-transporter KCC2, N-terminally tagged) (from UniProt Q9H2X9-2 1-1116) (natural protein)” gave a stoichiometry N [1] of 2, a stoichiometry N [2] of 2 and a stoichiometry N [3] of 2. The stoichiometry N [4] was 2.

B1: recombinant mouse KCC2, Q91V14 1-1138 (natural protein)
chain: MSRRFTVTSLPPAASAASADPESRRHSVADPRRLPREDVKGDGNPKESSPFINSTDTEKGREYDGRNMALFEEEMDTSPMVSSLLSGLANYTNLPQGSREHEEAENNEGGKKKPVQAPRMGTFMGVYLPCLQNIFGVILFLRLTWVVGIAGIMESFCMVFICCSCTMLTAISMSAIATNGVVPAGGSYYMISRSLGPEFGGAVGLCFYLGTTFAGAMYILGTIEILLAYLFPAMAIFKAEDASGEAAAMLNNMRVYGTCVLTCMATVVFVGVKYVNKFALVFLGCVILSILAIYAGVIKSAFDPPNFPICLLGNRTLSRHGFDVCAKLAWEGNETVTTRLWGLFCSSRLLNATCDEYFTRNNVTEIQGIPGAASGLIKENLWSSYLTKGVIVERRGMPSVGLADGTPVDMDHPYVFSDMTSYFTLLVGIYFPSVTGIMAGSNRSGDLRDAQKSIPTGTILAIATTSAVYISSVVLFGACIEGVVLRDKFGEAVNGNLVVGTLAWPSPWVIVIGSFFSTCGAGLQSLTGAPRLLQAISRDGIVPFLQVFGHGKANGEPTWALLLTACICEIGILIASLDEVAPILSMFFLMCYMFVNLACAVQTLLRTPNWRPRFRYYHWTLSFLGMSLCLALMFICSWYYALVAMLIAGLIYKYIEYRGAEKEWGDGIRGLSLSAARYALLRLEEGPPHTKNWRPQLLVLVRVDQDQNVVHPQLLSLTSQLKAGKGLTIVGSVLEGTFLDNHPQAQRAEESIRRLMEAEKVKGFCQVVISSNLRDGVSHLIQSGGLGGLQHNTVLVGWPRNWRQKEDHQTWRNFIELVRETTAGHLALLVTKNVSMFPGNPERFSEGSIDVWWIVHDGGMLMLLPFLLRHHKVWRKCKMRIFTVAQMDDNSIQMKKDLTTFLYHLRITAEVEVVEMHESDISAYTYEKTLVMEQRSQILKQMHLTKNEREREIQSITDESRGSIRRKNPANPRLRLNVPEETACDNEEKPEEEVQLIHDQSAPSCPSSSPSPGEEPEGERETDPEVHLTWTKDKSVAEKNKGPSPVSSEGIKDFFSMKPEWENLNQSNVRRMHTAVRLNEVIVNKSRDAKLVLLNMPGPPRNRNGDENYMEFLEVLTEQLDRVMLVRGGGREVITIYS
B1 showed a stoichiometry N [5] of 2.

Reference: publication PMC5705597, “Molecular architecture of potassium chloride co-transporter KCC2” (Scientific Reports, 2017)
